This is an account of results in US20240277864A1 (SORRISO PHARMACEUTICALS, published 2024).

As a reminder, the EC50 is the concentration at which the effect is half-maximal. As a reminder, the kon is a measure of how fast the partners come together. For orientation: Kd means the concentration at which binding is half-saturated. A word on the koff: it is a measure of how fast the partners let go of each other. Low values mean a long-lived complex, high ones a short-lived complex.

Experiment [1] deals with T1, Recombinant soluble human IL-6R (human, UniProt P08887 20-365).
T1 construct: extracellular domain; also called sIL-6R; hIL-6R
T1 sequence (looked up): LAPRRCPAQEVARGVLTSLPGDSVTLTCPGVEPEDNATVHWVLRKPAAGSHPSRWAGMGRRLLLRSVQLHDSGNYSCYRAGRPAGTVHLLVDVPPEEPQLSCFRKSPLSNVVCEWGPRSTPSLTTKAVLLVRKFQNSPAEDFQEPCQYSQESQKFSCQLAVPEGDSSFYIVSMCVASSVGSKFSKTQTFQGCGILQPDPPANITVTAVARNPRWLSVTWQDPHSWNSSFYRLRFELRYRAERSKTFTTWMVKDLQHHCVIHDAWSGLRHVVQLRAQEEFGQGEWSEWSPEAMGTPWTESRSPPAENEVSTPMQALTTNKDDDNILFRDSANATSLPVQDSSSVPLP
The experiment in a line: gp130 ELISA: inhibition of binding of sIL-6R/IL-6 complex to coated gp130.

Experiment [2] deals with T2, Membrane-bound IL-6 receptor on TF1 cells (human, UniProt P08887 20-468).
T2 sequence (looked up): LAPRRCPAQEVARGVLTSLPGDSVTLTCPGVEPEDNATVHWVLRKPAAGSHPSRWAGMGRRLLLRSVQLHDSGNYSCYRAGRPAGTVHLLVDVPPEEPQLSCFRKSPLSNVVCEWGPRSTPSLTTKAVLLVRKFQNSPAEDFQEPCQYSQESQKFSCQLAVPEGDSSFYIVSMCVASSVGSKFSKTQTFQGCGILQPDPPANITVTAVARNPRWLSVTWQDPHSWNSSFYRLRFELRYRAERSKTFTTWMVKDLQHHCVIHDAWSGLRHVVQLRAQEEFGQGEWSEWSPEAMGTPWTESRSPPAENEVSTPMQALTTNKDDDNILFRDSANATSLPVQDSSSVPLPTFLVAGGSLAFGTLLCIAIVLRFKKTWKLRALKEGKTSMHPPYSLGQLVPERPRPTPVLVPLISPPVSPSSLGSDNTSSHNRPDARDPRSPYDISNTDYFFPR
Nature of the experiment: cell-based or functional assay.

The target of experiment [3] is T3, Human TNF-alpha (human, UniProt P01375 77-233).
T3 construct: there it was coupled to the chip via covalently linked DNA in one orientation; also called hTNF-alpha; h-TNF-alpha
T3 sequence (P01375 77-233 limits assumed): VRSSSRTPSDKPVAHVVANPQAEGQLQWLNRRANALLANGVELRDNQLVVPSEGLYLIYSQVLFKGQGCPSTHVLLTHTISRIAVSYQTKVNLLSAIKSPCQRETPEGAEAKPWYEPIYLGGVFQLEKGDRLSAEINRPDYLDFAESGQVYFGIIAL
The experiment in a line: competition ELISA: inhibition of TNF-alpha binding to coated TNFR-2 (Enbrel). Background: In an ELISA, binding on a coated surface is turned into a signal by an enzyme label.
Description: An ELISA plate was coated overnight with 1.5 μg/ml TNFR-2 (Enbrel) in PBS overnight at 4° C. The plate was then washed and blocked in 1% BSA for >1 h at RT before being used. […] Finally, the plate was washed again and 100 μl/well of TMB were added. Colour development was stopped by adding 50 μl/well of 0.5M H₂SO₄ and OD450 nm measurements were taken using a BMG Labtek Fluostar Omega plate reader.

Experiment [4] has as its target T3, Human TNF-alpha. Nature of the experiment: switchSENSE, TNFa immobilised, fluorescence.
Experiment [5] has as its target T3, Human TNF-alpha. The experiment in a line: switchSENSE, ID-38F immobilised, TNF-alpha flowed, fluorescence.
For experiment [6], the target named is T3, Human TNF-alpha. Nature of the experiment: cell-based or functional assay.
Experiment [7] addresses T1, Recombinant soluble human IL-6R. Nature of the experiment: cell-based or functional assay.
The target is the same in experiment [8]. Nature of the experiment: cell-based or functional assay. This is another data set of the same source.
Experiment [9] has the same target. The experiment in a line: Biacore (SPR), ICVD fixed to the sensor plate, soluble human IL-6R flowed; ICVD on the chip, soluble human IL-6R flowed. From the text:
The ICVD was fixed to the Biacore sensor plate and soluble human IL-6R was flowed over the plate to detect binding.

Experiment [10] shares this target. The experiment in a line: Biacore (SPR), soluble human IL-6R flowed over the plate. For orientation: In SPR one partner is held on a chip, and binding of the other changes the refractive index at the surface.

B1: 20A11 (VHH)
VHH: EVQLVESGGGLVQPGGSLRLSCAASGSVFKINVMAWYRQAPGKGRELVAGIISGGSTSYADSVKGRFTISRDNAKNTLYLQMNSLRPEDTAVYYCAFITTESDYDLGRRYWGQGTLVTVSS
B1: the 50% effective concentration (EC50) in experiment [1] was determined as 0.22 nM. In addition, in experiment [2], the “TF-1 cell assay EC50 nM (5 ng/ml IL-6)” value was 0.56 nM.

B2: ID-38F (VHH)
VHH: DVQLVESGGGLVQPGGSLKLSCAASGFDFSSHWMYWVRQAPGKELEWLSEINTNGLITHYGDSVKGRFTVSRNNAANKMYLELTRLEPEDTALYYCARNQHGLNKGQGTQVTVSS
notes: also called ID38F (S. cerevisiae-produced); anti-TNF ICVD
Regarding B2, in the experiment with Human TNF-alpha [3], a half-maximal effect (EC50) was put at 0.383 nM. For the same molecule, the kon with Human TNF-alpha [4] was 8.1e+06 M⁻¹ s⁻¹. Further, in the experiment with Human TNF-alpha [5], binding was put at a Kd of 0.0168 nM, the off-rate (koff) is 4.2e-05 s⁻¹ and the on-rate (kon) is 2.5e+06 M⁻¹ s⁻¹. In the experiment with Human TNF-alpha [6], the “EC50 (nM), L929 assay (neutralisation of TNF-alpha-induced cytotoxicity)” value stood at 0.127 nM.

B3: ID-123V (VHH)
VHH: EVQLVESGGGLVQAGGSTRLTCKASGSISNINSINVMAWYRQAPGKGRELVAIIGKGGGTNYADFVKGRFTISRDAAKNTVYLQMNSLRPEDTAVYYCYADYEDHDSPHNASWGQGTQVTVSS
notes: equivalent to ID-142V except N-terminal Glu (lacks the E1D mutation) and tag; not shown: C-terminal Flag, His tag
On to B3, for which the “M1 cellular assay EC50” value in [7] was found to be 4.2 nM. For the same molecule, the “EC50, nM, M1 cell assay (% inhibition of the IL-6+IL-6R response)” value in [8] is 2.31 nM. Also, the EC50 in [1] came out at 0.498 nM. In experiment [2], the “TF-1 cell assay EC50 nM (5 ng/ml IL-6)” value amounted to 4.5 nM. Further, in experiment [9], the dissociation constant Kd came to 1.1 nM.

B4: ID-142V (VHH)
VHH: DVQLVESGGGLVQAGGSTRLTCKASGSISNINSINVMAWYRQAPGKGRELVAIIGKGGGTNYADFVKGRFTISRDAAKNTVYLQMNSLRPEDTAVYYCYADYEDHDSPHNASWGQGTQVTVSS
On to B4, for which, in [8], the “EC50, nM, M1 cell assay (% inhibition of the IL-6+IL-6R response)” value was 4.05 nM.

B5: Tocilizumab (antibody, V domains shown)
VH: QVQLQESGPGLVRPSQTLSLTCTVSGYSITSDHAWSWVRQPPGRGLEWIGYISYSGITTYNPSLKSRVTMLRDTSKNQFSLRLSSVTAADTAVYYCARSLARTTAMDYWGQGSLVTVSS
VL: DIQMTQSPSSLSASVGDRVTITCRASQDISSYLNWYQQKPGKAPKLLIYYTSRLHSGVPSRFSGSGSGTDFTFTISSLQPEDIATYYCQQGNTLPYTFGQGTKVEIKR
On to B5, for which the “M1 cellular assay EC50” value in [7] is 5.36 nM. In addition, the “EC50, nM, M1 cell assay (% inhibition of the IL-6+IL-6R response)” value in experiment [8] is 4.16 nM. Further, the concentration for a half-maximal effect (EC50) in experiment [1] came out at 1.83 nM. For the same molecule, the “TF-1 cell assay EC50 nM (5 ng/ml IL-6)” value in experiment [2] is 1.12 nM. Further, the equilibrium dissociation constant (Kd) in experiment [10] is 0.39 nM.
